Results reported in patent US7662384B2, “Use of anti-α5β1 antibodies to inhibit cancer cell proliferation” (Facet Biotech Corporation, priority 2004, dated 2010).

How the values were obtained:
Assay in all cases: FACS analysis of cancer cell line with IIA1
Type in all cases: binding
[1] = molecular target: T1, α5β1 integrin on the cell surface of H460 (Homo sapiens, UniProt P05556+P08648); details: H460 (lung); IIA1 10 μg/ml; background MFI ~5
T1 construct: endogenous in cells
Procedure: (§1) Cells were removed with 5 mM EDTA in Tris-HCl (pH 8.0) and blocked by centrifugation in Hank's balanced salt solution containing 3% heat inactivated FBS, 1% normal goat serum (Sigma) and 1% BSA at 4° C. for 5 minutes. Cells were incubated for 30-60 minutes at 4° C. with the mouse anti-α5β1 antibody, IIA1 (10 μg/ml) in FACS buffer (PBS containing 0.1% BSA). Excess monoclonal antibody was removed by centrifugation and cells were washed two times with FACS buffer prior to resuspending in PE-anti-mouse IgG (H+ L) antibody (Southern Biotech, 1:400 dilution) for 30-60 minutes at 4° C. After washing cells were re-suspended in FACS buffer containing propidium iodide (1 μg/ml). Mean fluorescence intensity (MFI) was measured on a FACSCalibur (Becton Dickinson). Background MFI was ˜5.

[2] = molecular target: T2, α5β1 integrin on the cell surface of COLO 357 (Homo sapiens, UniProt P05556+P08648); details: COLO 357 (pancreas); IIA1 10 μg/ml; background MFI ~5
T2 construct: endogenous in cells
Procedure: as §1

[3] = molecular target: T3, α5β1 integrin on the cell surface of 786-0 (Homo sapiens, UniProt P05556+P08648); details: 786-0 (renal); IIA1 10 μg/ml; background MFI ~5
T3 construct: endogenous in cells
Procedure: as §1

[4] = molecular target: T4, α5β1 integrin on the cell surface of A375 (Homo sapiens, UniProt P05556+P08648); details: A375 (melanoma); IIA1 10 μg/ml; background MFI ~5
T4 construct: endogenous in cells
Procedure: as §1

[5] = molecular target: T5, α5β1 integrin on the cell surface of MIA PACA-2 (Homo sapiens, UniProt P05556+P08648); details: MIA PACA-2 (pancreas); IIA1 10 μg/ml; background MFI ~5
T5 construct: endogenous in cells
T5 sequence (P08648 42-894 limits assumed): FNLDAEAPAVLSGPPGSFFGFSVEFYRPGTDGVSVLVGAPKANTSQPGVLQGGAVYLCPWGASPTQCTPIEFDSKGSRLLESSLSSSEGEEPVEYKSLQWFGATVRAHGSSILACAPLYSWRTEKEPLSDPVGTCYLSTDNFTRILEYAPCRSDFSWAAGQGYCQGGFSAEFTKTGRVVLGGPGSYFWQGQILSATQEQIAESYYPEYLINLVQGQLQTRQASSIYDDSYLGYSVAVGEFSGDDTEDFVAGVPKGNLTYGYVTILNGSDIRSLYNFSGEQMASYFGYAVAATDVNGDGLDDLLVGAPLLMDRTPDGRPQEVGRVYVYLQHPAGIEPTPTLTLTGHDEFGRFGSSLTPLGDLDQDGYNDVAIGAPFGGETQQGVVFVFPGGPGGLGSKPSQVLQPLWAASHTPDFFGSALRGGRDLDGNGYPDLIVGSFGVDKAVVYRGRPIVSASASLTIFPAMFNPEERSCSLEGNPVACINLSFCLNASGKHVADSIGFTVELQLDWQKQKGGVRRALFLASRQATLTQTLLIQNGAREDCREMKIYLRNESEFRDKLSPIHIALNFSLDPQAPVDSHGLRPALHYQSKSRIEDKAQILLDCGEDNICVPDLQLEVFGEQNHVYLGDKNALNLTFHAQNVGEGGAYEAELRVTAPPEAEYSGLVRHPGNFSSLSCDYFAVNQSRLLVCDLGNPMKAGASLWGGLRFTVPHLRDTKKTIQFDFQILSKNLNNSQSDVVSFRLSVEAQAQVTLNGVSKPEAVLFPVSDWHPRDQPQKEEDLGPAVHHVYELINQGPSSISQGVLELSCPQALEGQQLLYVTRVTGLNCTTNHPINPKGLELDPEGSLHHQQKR
T5 sequence (P08648 895-1049 limits assumed): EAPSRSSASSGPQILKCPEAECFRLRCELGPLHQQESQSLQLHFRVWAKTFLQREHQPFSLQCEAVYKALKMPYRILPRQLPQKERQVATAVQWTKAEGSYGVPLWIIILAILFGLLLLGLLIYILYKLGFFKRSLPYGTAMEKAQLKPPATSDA
T5 sequence (P05556 21-798): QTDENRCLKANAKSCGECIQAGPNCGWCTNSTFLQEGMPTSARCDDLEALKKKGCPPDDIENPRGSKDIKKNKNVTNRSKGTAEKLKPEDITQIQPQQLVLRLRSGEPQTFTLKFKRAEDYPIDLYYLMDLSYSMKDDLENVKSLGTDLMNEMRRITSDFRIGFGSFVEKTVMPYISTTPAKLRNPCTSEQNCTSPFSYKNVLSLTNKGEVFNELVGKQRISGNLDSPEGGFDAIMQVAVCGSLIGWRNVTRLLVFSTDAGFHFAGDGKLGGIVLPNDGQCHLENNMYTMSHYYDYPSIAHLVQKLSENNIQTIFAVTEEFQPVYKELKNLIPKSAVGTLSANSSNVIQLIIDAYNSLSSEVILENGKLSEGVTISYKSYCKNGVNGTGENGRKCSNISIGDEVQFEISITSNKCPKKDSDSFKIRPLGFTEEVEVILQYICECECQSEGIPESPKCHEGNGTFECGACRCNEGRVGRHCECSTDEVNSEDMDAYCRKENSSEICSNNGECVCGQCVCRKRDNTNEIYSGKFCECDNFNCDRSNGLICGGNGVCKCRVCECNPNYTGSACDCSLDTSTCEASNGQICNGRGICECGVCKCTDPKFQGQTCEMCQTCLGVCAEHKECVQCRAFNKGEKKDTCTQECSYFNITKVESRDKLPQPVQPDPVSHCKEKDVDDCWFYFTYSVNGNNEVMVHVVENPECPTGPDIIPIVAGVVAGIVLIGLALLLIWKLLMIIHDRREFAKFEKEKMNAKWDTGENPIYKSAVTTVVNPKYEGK
Procedure: as §1

[6] = molecular target: T6, α5β1 integrin on the cell surface of LOX (Homo sapiens, UniProt P05556+P08648); details: LOX (melanoma); IIA1 10 μg/ml; background MFI ~5
T6 construct: endogenous in cells
Procedure: as §1

[7] = molecular target: T7, α5β1 integrin on the cell surface of EKVX (Homo sapiens, UniProt P05556+P08648); details: EKVX (lung); IIA1 10 μg/ml; background MFI ~5
T7 construct: endogenous in cells
Procedure: as §1

[8] = molecular target: T8, α5β1 integrin on the cell surface of C8161 (Homo sapiens, UniProt P05556+P08648); details: C8161 (melanoma); IIA1 10 μg/ml; background MFI ~5
T8 construct: endogenous in cells
Procedure: as §1

[9] = molecular target: T9, α5β1 integrin on the cell surface of UACC-62 (Homo sapiens, UniProt P05556+P08648); details: UACC-62 (melanoma); IIA1 10 μg/ml; background MFI ~5
T9 construct: endogenous in cells
Procedure: as §1

[10] = molecular target: T10, α5β1 integrin on the cell surface of A549 (Homo sapiens, UniProt P05556+P08648); details: A549 (lung); IIA1 10 μg/ml; background MFI ~5
T10 construct: endogenous in cells
Procedure: as §1

[11] = molecular target: T11, α5β1 integrin on the cell surface of CHL-1 (Homo sapiens, UniProt P05556+P08648); details: CHL-1 (melanoma); IIA1 10 μg/ml; background MFI ~5
T11 construct: endogenous in cells
Procedure: as §1

[12] = molecular target: T12, α5β1 integrin on the cell surface of ES-2 (Homo sapiens, UniProt P05556+P08648); details: ES-2 (ovarian); IIA1 10 μg/ml; background MFI ~5
T12 construct: endogenous in cells
Procedure: as §1

[13] = molecular target: T13, α5β1 integrin on the cell surface of A498 (Homo sapiens, UniProt P05556+P08648); details: A498 (renal); IIA1 10 μg/ml; background MFI ~5
T13 construct: endogenous in cells
Procedure: as §1

[14] = molecular target: T14, α5β1 integrin on the cell surface of HCT-116 (Homo sapiens, UniProt P05556+P08648); details: HCT-116 (colon); IIA1 10 μg/ml; background MFI ~5
T14 construct: endogenous in cells
Procedure: as §1

[15] = molecular target: T15, α5β1 integrin on the cell surface of NW231 (Homo sapiens, UniProt P05556+P08648); details: NW231 (breast); IIA1 10 μg/ml; background MFI ~5
T15 construct: endogenous in cells
Procedure: as §1

[16] = molecular target: T16, α5β1 integrin on the cell surface of TK-10 (Homo sapiens, UniProt P05556+P08648); details: TK-10 (renal); IIA1 10 μg/ml; background MFI ~5
T16 construct: endogenous in cells
Procedure: as §1

[17] = molecular target: T17, α5β1 integrin on the cell surface of HT1376 (Homo sapiens, UniProt P05556+P08648); details: HT1376 (bladder); IIA1 10 μg/ml; background MFI ~5
T17 construct: endogenous in cells
Procedure: as §1

[18] = molecular target: T18, α5β1 integrin on the cell surface of HT144 (Homo sapiens, UniProt P05556+P08648); details: HT144 (melanoma); IIA1 10 μg/ml; background MFI ~5
T18 construct: endogenous in cells
Procedure: as §1

[19] = molecular target: T19, α5β1 integrin on the cell surface of SN12C (Homo sapiens, UniProt P05556+P08648); details: SN12C (renal); IIA1 10 μg/ml; background MFI ~5
T19 construct: endogenous in cells
Procedure: as §1

[20] = molecular target: T20, α5β1 integrin on the cell surface of A2058 (Homo sapiens, UniProt P05556+P08648); details: A2058 (melanoma); IIA1 10 μg/ml; background MFI ~5
T20 construct: endogenous in cells
Procedure: as §1

[21] = molecular target: T21, α5β1 integrin on the cell surface of DU145 (Homo sapiens, UniProt P05556+P08648); details: DU145 (prostate); IIA1 10 μg/ml; background MFI ~5
T21 construct: endogenous in cells
Procedure: as §1

[22] = molecular target: T22, α5β1 integrin on the cell surface of C32 (Homo sapiens, UniProt P05556+P08648); details: C32 (melanoma); IIA1 10 μg/ml; background MFI ~5
T22 construct: endogenous in cells
T22 sequence (P08648 42-894 limits assumed): as the sequence (P08648 42-894 limits assumed) above
T22 sequence (P08648 895-1049 limits assumed): as the sequence (P08648 895-1049 limits assumed) above
T22 sequence (P05556 21-798): as the sequence (P05556 21-798) above
Procedure: as §1

- α5β1 Surface Expression (MFI) [1]: 87.5 MFI
- α5β1 Surface Expression (MFI) [2]: 7.8 MFI
- α5β1 Surface Expression (MFI) [3]: 144.4 MFI
- α5β1 Surface Expression (MFI) [4]: 156.1 MFI
- α5β1 Surface Expression (MFI) [5]: 61.9 MFI
- α5β1 Surface Expression (MFI) [6]: 261.6 MFI
- α5β1 Surface Expression (MFI) [7]: 36.7 MFI
- α5β1 Surface Expression (MFI) [8]: 122 MFI
- α5β1 Surface Expression (MFI) [9]: 88.5 MFI
- α5β1 Surface Expression (MFI) [10]: 71.41 MFI
- α5β1 Surface Expression (MFI) [11]: 6.8 MFI
- α5β1 Surface Expression (MFI) [12]: 132.8 MFI
- α5β1 Surface Expression (MFI) [13]: 67.1 MFI
- α5β1 Surface Expression (MFI) [14]: 42.5 MFI
- α5β1 Surface Expression (MFI) [15]: 132.2 MFI
- α5β1 Surface Expression (MFI) [16]: 36.6 MFI
- α5β1 Surface Expression (MFI) [17]: 111.9 MFI
- α5β1 Surface Expression (MFI) [18]: 102.1 MFI
- α5β1 Surface Expression (MFI) [19]: 129.1 MFI
- α5β1 Surface Expression (MFI) [20]: 36.2 MFI
- α5β1 Surface Expression (MFI) [21]: 87.5 MFI
- α5β1 Surface Expression (MFI) [22]: 5.7 MFI
B1: IIA1: parent mouse IgG1 class anti-α5β1 antibody shown to inhibit α5β1 integrin binding to fibronectin (antibody, V domains shown)
VH: MAVLGLLLCLVTFPSCVLSQVQLKESGPGLVAPSQSLSITCTISGFSLTDYGVHWVRQPPGKGLEWLVVIWSDGSSTYNSALKSRMTIRKDNSKSQVFLIMNSLQTDDSAMYYCARHGTYYGMTTTGDALDYWGQGTSVTVSS
VL: MDFQVQIFSFLLISASVIMSRGQIVLTQSPAIMSASLGERVTMTCTASSSVSSNYLHWYQQKPGSAPNLWIYSTSNLASGVPARFSGSGSGTSYSLTISSMEAEDAATYYCHQYLRSPPTFGGGTKLEIK
modifications: mus muscalus
